Measured values published in paper PMC6436931, “Activation of the Endonuclease that Defines mRNA 3′ Ends Requires Incorporation into an 8-Subunit Core Cleavage and Polyadenylation Factor Complex” (Molecular Cell, 2019).

T1: Ysh1;Yjr141w (Saccharomyces cerevisiae;Saccharomyces …, UniProt Q06224;P47172 1-779;1-347, |)
T1 sequence 1: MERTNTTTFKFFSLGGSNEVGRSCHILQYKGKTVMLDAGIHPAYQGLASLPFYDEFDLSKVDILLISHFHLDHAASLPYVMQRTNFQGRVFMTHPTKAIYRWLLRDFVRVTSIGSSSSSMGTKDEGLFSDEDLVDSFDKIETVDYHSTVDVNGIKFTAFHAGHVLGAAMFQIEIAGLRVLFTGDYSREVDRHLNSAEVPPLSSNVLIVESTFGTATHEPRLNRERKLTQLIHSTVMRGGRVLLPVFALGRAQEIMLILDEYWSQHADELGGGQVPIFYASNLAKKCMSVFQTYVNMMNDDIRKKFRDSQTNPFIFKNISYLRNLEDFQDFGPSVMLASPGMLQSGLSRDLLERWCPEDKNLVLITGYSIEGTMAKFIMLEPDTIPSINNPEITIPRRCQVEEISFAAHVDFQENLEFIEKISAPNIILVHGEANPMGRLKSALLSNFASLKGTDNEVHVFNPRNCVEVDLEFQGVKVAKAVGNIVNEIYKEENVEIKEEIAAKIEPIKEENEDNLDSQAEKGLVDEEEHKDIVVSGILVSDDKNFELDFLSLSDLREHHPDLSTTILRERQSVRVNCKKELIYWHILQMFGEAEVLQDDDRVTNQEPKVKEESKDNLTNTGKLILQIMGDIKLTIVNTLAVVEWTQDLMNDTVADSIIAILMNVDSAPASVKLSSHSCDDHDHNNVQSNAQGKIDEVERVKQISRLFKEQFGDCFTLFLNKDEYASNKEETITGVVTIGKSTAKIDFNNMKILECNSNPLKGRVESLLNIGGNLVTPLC
T1 sequence 2: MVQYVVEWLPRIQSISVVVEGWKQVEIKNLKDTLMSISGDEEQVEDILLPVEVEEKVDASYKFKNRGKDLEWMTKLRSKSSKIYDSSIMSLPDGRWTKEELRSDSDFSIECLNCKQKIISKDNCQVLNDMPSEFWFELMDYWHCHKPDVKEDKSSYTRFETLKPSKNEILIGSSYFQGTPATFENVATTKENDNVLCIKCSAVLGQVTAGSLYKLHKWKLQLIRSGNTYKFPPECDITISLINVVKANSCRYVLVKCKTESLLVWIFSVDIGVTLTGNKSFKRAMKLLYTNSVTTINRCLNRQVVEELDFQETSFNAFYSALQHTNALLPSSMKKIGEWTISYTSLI

B1: C15 (ssRNA)
RNA: CCCCCCCCCCCCCCC
B2: G15 (ssRNA)
RNA: GGGGGGGGGGGGGGG
B3: U15 (ssRNA)
RNA: UUUUUUUUUUUUUUU
B4: CYC1d EMSA probe (ssRNA)
RNA: AAGAACGUUAUUUAUAUUUCAAAUUUUUCUUUUUU
B5: A15 (ssRNA)
RNA: AAAAAAAAAAAAAAA
B6: CYC1f EMSA probe (ssRNA)
RNA: CGUUAUUUAUAUUUCAAAUUUUUCU

These binders were tested against Cft1;Pfs2;Yth1;Fip1;Pap1 (Saccharomyces cerevisiae;Saccharomyces …, UniProt Q06632;P42841;Q06102;P45976;P29468 1-1357;1-465;1-208;1-327;1-568, ||||) (assay: EMSA; CPFpol; EMSA: 50 nM RNA, 0.25-4.0 uM protein, protein diluted in 10 mM HEPES pH 7.9, 150 mM NaCl, 0.5 mM Mg(OAc)2, plus 1x loading dye (orange G, glycerol, EDTA); 30 min on ice; native 6% acrylamide/TBE PAGE). Conditions: protein: recombinant;recombinant;recombinant;recombinant;recombinant; tags: ;3C-SII;3C-8H; untagged in CPFpol+Cft2;;SII (Pap1-SII) when alone; untagged in CPFpol and CPFcore; copies: 1;2;1;1;1; label: 5'-FAM.
B1: no binding. B2: binds. B3: no binding. B4: binds. B5: binds.

The binders below were run against Cft1;Pfs2;Yth1;Fip1 (Saccharomyces cerevisiae;Saccharomyces …, UniProt Q06632;P42841;Q06102;P45976 1-1357;1-465;1-208;1-327, |||) (assay: EMSA; CPFpol (no Pap1); EMSA: 50 nM RNA, 0.25-4.0 uM protein, protein diluted in 10 mM HEPES pH 7.9, 150 mM NaCl, 0.5 mM Mg(OAc)2, plus 1x loading dye (orange G, glycerol, EDTA); 30 min on ice; native 6% acrylamide/TBE PAGE). Conditions: protein: recombinant;recombinant;recombinant;recombinant; tags: ;3C-SII;3C-8H; untagged in CPFpol+Cft2;; copies: 1;2;1;1; label: 5'-FAM.
Sequence of Cft1;Pfs2;Yth1;Fip1 (Q06632 whole entry, chain 1 of 4): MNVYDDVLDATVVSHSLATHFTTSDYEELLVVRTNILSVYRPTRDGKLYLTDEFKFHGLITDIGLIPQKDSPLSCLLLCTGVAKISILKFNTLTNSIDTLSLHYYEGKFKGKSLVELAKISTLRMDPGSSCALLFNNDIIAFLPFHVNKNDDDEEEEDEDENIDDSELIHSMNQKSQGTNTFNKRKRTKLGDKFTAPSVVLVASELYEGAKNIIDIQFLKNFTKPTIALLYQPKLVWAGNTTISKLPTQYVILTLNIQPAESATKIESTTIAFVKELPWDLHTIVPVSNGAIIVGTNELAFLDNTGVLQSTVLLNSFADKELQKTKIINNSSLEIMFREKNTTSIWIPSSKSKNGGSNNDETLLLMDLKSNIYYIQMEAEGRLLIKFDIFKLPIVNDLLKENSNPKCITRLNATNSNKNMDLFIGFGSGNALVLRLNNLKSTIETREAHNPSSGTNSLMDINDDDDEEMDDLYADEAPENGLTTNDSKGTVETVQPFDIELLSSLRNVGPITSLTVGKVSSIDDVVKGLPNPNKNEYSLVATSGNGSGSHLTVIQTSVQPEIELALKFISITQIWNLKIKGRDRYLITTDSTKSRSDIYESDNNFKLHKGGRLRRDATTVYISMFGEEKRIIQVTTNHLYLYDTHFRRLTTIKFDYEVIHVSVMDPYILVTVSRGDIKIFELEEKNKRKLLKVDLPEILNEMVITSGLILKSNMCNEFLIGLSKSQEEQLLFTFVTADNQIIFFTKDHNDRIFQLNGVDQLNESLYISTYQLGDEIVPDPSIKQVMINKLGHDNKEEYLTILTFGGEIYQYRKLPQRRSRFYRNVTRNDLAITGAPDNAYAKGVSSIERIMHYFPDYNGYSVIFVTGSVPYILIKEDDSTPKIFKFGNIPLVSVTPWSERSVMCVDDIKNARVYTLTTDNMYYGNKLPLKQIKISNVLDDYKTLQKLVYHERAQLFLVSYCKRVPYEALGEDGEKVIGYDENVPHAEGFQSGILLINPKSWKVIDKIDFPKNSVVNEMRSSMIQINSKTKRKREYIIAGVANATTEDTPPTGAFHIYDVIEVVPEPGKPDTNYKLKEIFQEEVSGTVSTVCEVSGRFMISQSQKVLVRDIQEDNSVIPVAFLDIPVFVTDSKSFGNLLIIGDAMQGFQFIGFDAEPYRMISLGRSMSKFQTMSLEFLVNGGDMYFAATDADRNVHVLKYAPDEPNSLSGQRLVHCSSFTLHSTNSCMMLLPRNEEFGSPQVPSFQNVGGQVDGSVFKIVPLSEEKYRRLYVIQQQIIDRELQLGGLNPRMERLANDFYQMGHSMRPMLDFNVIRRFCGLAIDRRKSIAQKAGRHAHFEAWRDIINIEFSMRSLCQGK
Sequence of Cft1;Pfs2;Yth1;Fip1 (P42841 whole entry, chain 2 of 4): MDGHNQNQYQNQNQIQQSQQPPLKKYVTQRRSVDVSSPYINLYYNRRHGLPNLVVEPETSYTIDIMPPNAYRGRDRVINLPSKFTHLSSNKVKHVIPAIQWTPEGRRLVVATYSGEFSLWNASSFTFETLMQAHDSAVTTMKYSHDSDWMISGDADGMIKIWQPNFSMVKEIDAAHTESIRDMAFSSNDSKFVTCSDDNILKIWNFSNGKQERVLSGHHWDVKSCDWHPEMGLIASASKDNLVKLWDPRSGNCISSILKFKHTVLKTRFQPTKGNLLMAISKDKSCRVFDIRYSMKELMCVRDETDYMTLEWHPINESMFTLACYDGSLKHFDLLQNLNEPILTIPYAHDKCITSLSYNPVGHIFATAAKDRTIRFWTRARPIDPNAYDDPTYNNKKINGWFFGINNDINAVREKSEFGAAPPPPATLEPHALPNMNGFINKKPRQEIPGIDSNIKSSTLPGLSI
Sequence of Cft1;Pfs2;Yth1;Fip1 (Q06102 whole entry, chain 3 of 4): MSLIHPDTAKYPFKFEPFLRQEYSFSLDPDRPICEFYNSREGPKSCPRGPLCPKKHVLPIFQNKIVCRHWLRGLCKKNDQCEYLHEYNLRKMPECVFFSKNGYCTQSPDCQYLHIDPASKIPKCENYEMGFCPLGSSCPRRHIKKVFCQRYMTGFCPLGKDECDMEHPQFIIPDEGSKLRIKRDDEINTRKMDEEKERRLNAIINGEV
Sequence of Cft1;Pfs2;Yth1;Fip1 (P45976 whole entry, chain 4 of 4): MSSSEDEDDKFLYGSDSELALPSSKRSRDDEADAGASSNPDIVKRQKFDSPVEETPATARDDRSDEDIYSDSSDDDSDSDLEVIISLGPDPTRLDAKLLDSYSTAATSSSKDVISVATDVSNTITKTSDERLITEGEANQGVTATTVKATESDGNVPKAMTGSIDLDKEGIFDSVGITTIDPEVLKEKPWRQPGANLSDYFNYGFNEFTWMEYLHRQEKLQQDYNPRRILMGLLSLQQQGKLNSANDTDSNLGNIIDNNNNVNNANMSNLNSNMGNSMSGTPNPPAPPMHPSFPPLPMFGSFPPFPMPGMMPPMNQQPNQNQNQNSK
B1: no binding. B2: binds. B3: no binding. B4: binds. B5: binds.

The binders below were run against Cft1;Pfs2;Yth1;Fip1;Pap1;Cft2 (Saccharomyces cerevisiae;Saccharomyces …, UniProt Q06632;P42841;Q06102;P45976;P29468;Q12102 1-1357;1-465;1-208;1-327;1-568;1-859, |||||) (assay: EMSA; CPFpol + Cft2; EMSA: 50 nM RNA, 0.25-4.0 uM protein, protein diluted in 10 mM HEPES pH 7.9, 150 mM NaCl, 0.5 mM Mg(OAc)2, plus 1x loading dye (orange G, glycerol, EDTA); 30 min on ice; native 6% acrylamide/TBE PAGE). Conditions: protein: recombinant;recombinant;recombinant;recombinant;recombinant;recombinant, tags: ;3C-SII;3C-8H, untagged in CPFpol+Cft2;;SII (Pap1-SII) when alone, untagged in CPFpol and CPFcore;SII (Cft2-SII) when alone, copies: 1;2;1;1;1;1, label: 5'-FAM.
B1: no binding. B2: binds. B6: binds. B3: no binding. B4: binds. B5: binds.

The binders below were run against T1, Ysh1;Yjr141w (assay: EMSA; EMSA: 50 nM RNA, 0.25-4.0 uM protein, protein diluted in 10 mM HEPES pH 7.9, 150 mM NaCl, 0.5 mM Mg(OAc)2, plus 1x loading dye (orange G, glycerol, EDTA); 30 min on ice; native 6% acrylamide/TBE PAGE). Conditions: protein: recombinant;recombinant; tags: ;SII-3C (N-terminal) in Ysh1-Yjr141w; untagged in Ysh1-Mpe1-Yjr141w; copies: 1;1; label: 5'-FAM.
B1: no binding. B2: no binding. B6: no binding. B3: no binding. B4: no binding. B5: no binding.
